# Data as given in the DeepSol protein solubility set.
# Test: soluble on expression in E. coli; label from the status in PepcDB or PDB records
row,Sequence,soluble on expression in E. coli
1,MGGLDKMSVEKKLLLDVKDLKVHFNITPKSAWPWTKPVTLKAVDGVNVRLYEGETLGVVGESGCGKSTFARAIIGLVQATHGEVVWLGQDLTRMQEVKRRATRKQIQMIFQDPLASLNPRMTVGDIIAEPLQTFYPELSKQEVKDRVKEMMAKVGLLPNVINRYPHEFSGGQCQRIGIARALILKPKMIICDEPVSALDVSIQAQVVNLLKELQKELGLSLVFIAHDLSVVKHISDRVLVMYLGNAVELGVSKELFANPKHPYTKALMSAVPIPDPNIERNKTIQMLEGDLPSPMNPPSGCVFRTRCPQATAECAKTKPVIKGSDIHSVSCLYAEA,not soluble
2,MGGSHHHHHHGMASALTDQTYCDRLVQDTPFLTGHGRLSEQQVDRIILQLNRYYPQILTNKEAEKFRNPKASLRVRLCDLLSHLQRSGERDCQEFYRALYIHAQPLHSRLPSRHALQNSDCTELDSGSQSGELSNRGPMSFLAGLGLAVGLALLLYCYPPDPKGLPGTRRVLGFSPVIIDRHVSRYLLAFLADDLGGL,not soluble
3,MGGSLGLALQEWGRFKSVIGYDHNALHAKLALTLGLVDECVGFEKILECDVIFLAIPVEGIIGCLKKMTSIKKSATIIDLGGAKAQIIRNIPKSIRKNFIAAHPMCGTEFYGPKASVKGLYENALVILCDLEDSGTEQVEIAKEIFLGVKARLIKMKSNEHDTHVAYISHLPHVLSYALANSVLKQNDPEMILSLAGGGFRDMSRLSKSSPLMWKDIFKQNRDNVLEAIKKCEKEIVQAKAWIENNDYESLAEWMAQANKLQEFMLEHHHHHH,not soluble
4,MGHHHHHHHHHHSSGHIDDDDKHMGSMAELKYISGFGNECSSEDPRCPGSLPEGQNNPQVCPYNLYAEQLSGSAFTCPRSTNKRSWLYRILPSVSHKPFESIDEGHVTHNWDEVDPDPNQLRWKPFEIPKASQKKVDFVSGLHTLCGAGDIKSNNGLAIHIFLCNTSMENRCFYNSDGDFLIVPQKGNLLIYTEFGKMLVQPNEICVIQRGMRFSIDVFEETRGYILEVYGVHFELPDLGPIGANGLANPRDFLIPIAWYEDRQVPGGYTVINKYQGKLFAAKQDVSPFNVVAWHGNYTPYKYNLKNFMVINSVAFDHADPSIFTVLTAKSVRPGVAIADFVIFPPRWGVADKTFRPPYYHRNCMSEFMGLIRGHYEAKQGGFLPGGGSLHSTMTPHGPDADCFEKASKVKLAPERIADGTMAFMFESSLSLAVTKWGLKASRCLDENYHKCWEPLKSHFTPNSRNPAEPN,soluble
5,MGHHHHHHHHHHSSGHIDDDDKHMKNKKDKGLLSGKLTPAQSKNPAKNELYLVEGDSAGGSAKQGRDRKFQAILPLRGKVINTAKAKMADILKNEEINTMIYTIGAGVGADFSIEDANYDKIIIMTDADTDGAHIQTLLLTFFYRYMRPLVEAGHVYIALPPLYKMSKGKGKKEEVAYAWTDGELEELRKQFGKGATLQRYKGLGEMNADQLWETTMNPETRTLIRVTIEDLARAERRVNVLMGDKVEPRRKWIEDNVKFTLEEATVF,soluble
6,MGHHHHHHMRSYEKSKTAFKEAQKLMPGGVNSPVRAFKSVDMDPIFMERGKGSKIFDIDGNEYIDYVLSWGPLILGHTNDRVVESLKKVAEYGTSFGAPTEVENELAKLVIDRVPSVEIVRMVSSGTEATMSALRLARGYTGRNKILKFEGCYHGHGDSLLIKAGSGVATLGLPDSPGVPEGIAKNTITVPYNDLESVKLAFQQFGEDIAGVIVEPVAGNMGVVPPQEGFLQGLRDITEQYGSLLIFDEVMTGFRVDYNCAQGYFGVTPDLTCLGKVIGGGLPVGAYGGKAEIMEQIAPSGPIYQAGTLSGNPLAMTAGLETLKQLTPDSYKNFIKKGDRLEEGISKAAEAHGIPHTFNRAGSMIGFFFTNEPVINYETAKASDLKLFASYYKGMANEGVFLPPSQFEGLFLSTAHTDEDIENTIQAAEKVFAEISRR,soluble
7,MGHHHHHHSHATWHSALRGDAGLDSCRHVDSKCSGLHSSYRNLGTRQCPFSFLAEVMGKEPHFHSCLQVSHEFALNFNPSNPYCAGIQGIVDAYRQALPQVRLYGPTNFAPIINHVARFAQYFMLLLLTDGAVTDVEATREAVVRASNLPMSVIIVGVGGADFEAMEQLDADGGPLHTRSGQAAARDIVQFVPYRRFQNAPREALAQTVLAEVPTQLVSYFRAQGWAPLKPLPPSAKDPAQAPQA,not soluble
8,MGHHHHHHSHIKKNNHHEENISSKMKGLNGKVSDLEKAAAQRKAKLDENSAFLQFNWKADVVESWIGEKENSLKTDDYGRDLSSVQTLLTKQETFDAGLQAFQQEGIANITALKDQLLAAKHVQSKAIEARHASLMKRWSQLLANSAARKKKLLEAQSHFRKVEDLFLTFAKKASAFNSWFENAEEDLTDPVRCNSLEEIKALREAHDAFRSSLSSAQADFNQLAELDRQIKSFRVASNPYT,not soluble
9,MGHHHHHHSHKDDTDPGQLKGLSAHTHVELPYYSKFILIAAYLASYNPARTDKRFFLKHHGKIKKTNFLKKHEKTSNHLLGPKPFPLDRLLAILYSIVDSRVAPTANIFSQITSLVTLQLLTLVGHDDQLDGPKYKCTVSLDFIRAIARTVNFDIIKYLYDFL,not soluble
10,MGHHHHHHSHKPGLSTSIPLRMSSYTFKRPVTRITPHPGNEVRYHQWEESLEKPQQVCWQRRLQGLQAYSSAGELSSTLDLANTLQKLVPSYTGGSLLEDLASGLEHSCPMPHLACSSDAVEIIPAEGVGISQLLCKQFLVTEEDIRKQEGKVKTVRERLAIALIADGLANEAEKVRDQEGCPEKR,not soluble
11,MGHHHHHHSHMAASRNGFEAVEAEGSAGCRGSSGMEVVLPLDPAVPAPLCPHGPTLLFVKVTQGKEETRRFYACSACRDRKDCNFFQWEDEKLSGARLAAREAHNRRCQPPLSRTQCVERYLKFIELPLTQRKFCQTCQQLLLPDDWGQHSEHQVLGNVSITQLRRPSQLLYPLENKKTNAQYLFADRSCQFLVDLLSALGFRRVLCVGTPRLHELIKLTASGDKKSNIKSLLLDIDFRYSQFYMEDSFCHYNMFNHHFFDGKTALEVCRAFLQEDKGEGIIMVTDPPFGGLVEPLAITFKKLIAMWKEGQSQDDSHKELPIFWIFPYFFESRICQFFPSFQMLDYQVDYDNHALYKHGKTGRKQSPVRIFTNIPPNKIILPTEEGYRFCSPCQRYVSLENQHCELCNSCTSKDGRKWNHCFLCKKCVKPSWIHCSICNHCAVPDHSCEGPKHGCFICGELDHKRSTCP,soluble
12,MGHHHHHHSHMALVTVQRSPTPSTTSSPCASEADSGEEECRSQPRSISESFLTVKGAALFLPRGNGSSTPRISHRRNKHAGDLQQHLQAMFILLRPEDNIRLAVRLESTYQNRTRYMVVVSTNGRQDTEESIVLGMDFSSNDSSTCTMGLVLPLWSDTLIHLDGDGGFSVSTDNRVHIFKPVSVQAMWVDRDSRNKHCDVLLVEE,not soluble
13,MGHHHHHHSHMANSAGSMANSAGSLPTTTIGSFPQSREVRKYRADWKNKRITDEAYETFLKNEIARWIKIQEDIGLDVLVHGEFERNDMVEFFGEKLQGFLVTKFGWVQSYGSRAVKPPIIYGDVKWTAPLTVDETVYAQSLTDKPVKGMLTGPVTILNWSFERVDLPRKVVQDQIALAINEEVLALEAAGIKVIQVDEPALREGLPLRSEYHEQYLKDAVLSFKLATSSVRDETQIHTHMCYSQFGQIIHAIHDLDADVISIETSRSHGDLIKDFEDINYDLGIGLGVYDIHSPRIPTKEEITTAINRSLQQIDRSLFWVNPDCGLKTRKEEEVKDALTVLVNAVKA,not soluble
14,MGHHHHHHSHMASLFRSYLPAIWLLLSQLLRESLAAELRGCGPRFGKHLLSYCPMPEKTFTTTPGGWLLESGRPKEMVSTSNNKDGQALGTTSEFIPNLSPELKKPLSEGQPSLKKIILSRKKRSGRHRFDPFCCEVICDDGTSVKLCT,not soluble
15,MGHHHHHHSHMATNAKPVYKRILLKLSGEALQGTEGFGIDASILDRMAQEIKELVELGIQVGVVIGGGNLFRGAGLAKAGMNRVVGDHMGMLATVMNGLAMRDALHRAYVNARLMSAIPLNGVCDSYSWAEAISLLRNNRVVILSAGTGNPFFTTDSAACLRGIEIEADVVLKATKVDGVFTADPAKDPTATMYEQLTYSEVLEKELKVMDLAAFTLARDHKLPIRVFNMNKPGALRRVVMGEKEGTLITE,soluble
16,MGHHHHHHSHMAVASTSTSDGMLTLDLIQEEDPSPEEPTSCAESFRVDLDKSVAQLAGSRRRADSDRIQPSADRASSLSRPWEKTDKGATYTPQAPKKLTPTEKGRCASLEEILSQRDAASARTLQLRAEEPPTPALPNPGQLSRIQDLVARKLEETQELLAEVQGLGDGKRKAKDPPRSPPDSESEQLLLETERLLGEASSNWSQAKRVLQEVRELRDLYRQMDLQTPDSHLRQTTPHSQYRKSLM,not soluble
17,MGHHHHHHSHMCSALVVAAPHSGSGKTTVTAAIARYHRVQGRKVTVFKVGPDFIDPMILRQASGELVYQLDLWLVGEQGCRALLHRAAMDSDLILIEGVMGLFDGTPSSADLAKYFNIPVLGVIDAKAMAQTFAAVTFGLAKFCEDLPFSGVIANRVNTERHAELLSVSLPKAFRFYGRIPKDDTITLPERHLGLVQAQELSDIDVQLDKAASHIANTG,not soluble
18,MGHHHHHHSHMEKSELKPAGVFHFFNEICQVPRPSKKEEKMIAYLKAFGEKHNLETKVDEAGNVLIKKPATPGKENLKTVILQSHVDMVCEKNNDTDHDFLTDPIETEIDGEWMKAKGTTLGADNGIGVATELAILADDSIEHGPIECLFTVDEETGLTGAFALKEGFMSGEILLNLDSEDEGELYIGCAGGIDTVAEFQYENEMTPISHLCFRITVKGLKGGHSGGDIHLGRGNANKILNRFLYQMMTTYQEDFHLYEFNGGNLRNAIPREASAVFSVPEHYKHDIRTALNVFTAEIENELHRVEPDLNILLETEPHRDWSIDSSTSYRLITSLYGCPHGVYAMSQDIPGLVETSTNLASVKMKPENTIRIETSQRSSILSSRDDIATTVRAVFRLAGAQVNWGEGYPGWKPNPDSEILKVAEESYKRLFGVDAKVKAIHAGLECGLFLDKYPALDMISFGPTLTGVHSPDERMHIPSVDKFWKHLLDVLAHIPAKN,soluble
19,MGHHHHHHSHMFEFKHIKAFDRAFADNPGPMVVFATPGMLHAGQSLQIFRKWAGNEKNMVIMPGYCVQGTVGHKILSGQRKLEMEGRQVLEVKMQVEYMSFSAHADAKGIMQLVGQAEPESVLLVHGEAKKMEFLKQKIEQELRVNCYMPANGETVTLPTSPSIPVGISLGLLKREMAQGLLPEAKKPRLLHGTLIMKDSNFRLVSSEQALKELGLAEHQLRFTCRVHLHDTRKEQETALRVYSHLKSVLKDHCVQHLPDGSVTVESVLLQAAAPSEDPGTKVLLVSWTYQDEELGSFSHLC,not soluble
20,MGHHHHHHSHMGCDGGTIPKRHELVKGPKKVEKVDKDAELVAQWNYCTLSQEILRRPIVACELGRLYNKDAVIEFLLDKSAEKALGKAASHIKSIKNVTELKLSDNPAWEGDKGNTKGDKHDDLQRARFICPVVGLEMNGRHRFCFLRCCGCVFSERALKEIKAEVCHTCGAAFQEDDVIVLNGTKEDVDVLKTRMEERRLRANREKKTKKPKAAESVSKPDVSEEAPGPSKVKTGKPEEASLDSREKKTNLAPKSTAMNESSSGKAGKPPCGATKRSIADSEESEAYKSLFTTHSSAKRSKEESAHWVTHTSYCF,not soluble
21,MGHHHHHHSHMGRGSGTFERLLDKATSQLLLETDWESILQICDLIRQGDTQAKYAVNSIKKKVNDKNPHVALYALEVMESVVKNCGQTVHDEVANKQTMEELKDLLKRQVEVNVRNKILYLIQAWAHAFRNEPKYKVVQDTYQIMKVEGHVFPEFKESDAMFAAERAPDWVDAEECHRCRVQFGVMTRKHHCRACGQIFCGKCSSKYSTIPKFGIEKEVRVCEPCYEQLNRKAEGK,soluble
